Measured values taken from publication PMC4817942.

Legend:
[1] = target: FcγRI (CD64) (UniProt P12314); assay: SPR; Biacore analysis; who was immobilised, buffer and temperature not given for this experiment
[2] = target: FcγRIIB (CD32B) (UniProt P31994); assay: as above
[3] = target: FcγRIII (CD16A) (UniProt P08637); assay: as above
[4] = target: FcγRIIA (CD32A) (UniProt P12318); assay: as above
[5] = target: neonatal Fc receptor (FcRn) (UniProt P55899); assay: SPR; Biacore analysis; FcRn data collected at pH6; who was immobilised not told
[6] = target: HER2 on the cell surface (human (endogenous in SK-BR-3, HCC1954 and BT474)) (UniProt P04626); assay: flow cytometry on cells; cells with 0.1-2,000 nmol/l Fcab for 1 hour at 4 °C in DPBS with 2% FBS; detected by anti-human IgG-phycoerythrin
[7] = target: human HER2 ECD-Fc recombinant (human) (UniProt P04626); assay: SPR; BIAcore 3000; human HER2 ECD-Fc amine-coupled on a CM5 chip to 200 RU; analyte FS102 (50 µg/ml) at 20 µl/minute; HBS-P buffer; apparent KD
[8] = target: HER2 on the cell surface (human (endogenous in SK-BR-3, HCC1954 and BT474)) (UniProt P04626)

Chain of FcγRIIB (CD32B) (P31994 43-310): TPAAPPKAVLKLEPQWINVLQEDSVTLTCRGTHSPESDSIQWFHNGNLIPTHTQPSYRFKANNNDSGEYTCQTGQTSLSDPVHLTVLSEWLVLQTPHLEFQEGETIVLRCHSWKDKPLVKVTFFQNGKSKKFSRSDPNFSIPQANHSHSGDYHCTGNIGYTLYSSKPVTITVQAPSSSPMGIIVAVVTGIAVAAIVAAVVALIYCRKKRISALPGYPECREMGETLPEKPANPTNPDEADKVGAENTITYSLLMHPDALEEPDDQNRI
Chain of FcγRIIA (CD32A) (P12318 34-317): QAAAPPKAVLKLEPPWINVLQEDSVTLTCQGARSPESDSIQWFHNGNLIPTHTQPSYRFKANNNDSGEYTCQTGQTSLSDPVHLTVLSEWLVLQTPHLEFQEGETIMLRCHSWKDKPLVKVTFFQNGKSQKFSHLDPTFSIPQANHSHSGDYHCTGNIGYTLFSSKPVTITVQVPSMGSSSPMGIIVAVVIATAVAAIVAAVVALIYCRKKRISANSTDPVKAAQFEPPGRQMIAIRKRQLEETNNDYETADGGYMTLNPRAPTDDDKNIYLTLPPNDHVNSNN
Chain of FcγRI (CD64) (P12314 16-374): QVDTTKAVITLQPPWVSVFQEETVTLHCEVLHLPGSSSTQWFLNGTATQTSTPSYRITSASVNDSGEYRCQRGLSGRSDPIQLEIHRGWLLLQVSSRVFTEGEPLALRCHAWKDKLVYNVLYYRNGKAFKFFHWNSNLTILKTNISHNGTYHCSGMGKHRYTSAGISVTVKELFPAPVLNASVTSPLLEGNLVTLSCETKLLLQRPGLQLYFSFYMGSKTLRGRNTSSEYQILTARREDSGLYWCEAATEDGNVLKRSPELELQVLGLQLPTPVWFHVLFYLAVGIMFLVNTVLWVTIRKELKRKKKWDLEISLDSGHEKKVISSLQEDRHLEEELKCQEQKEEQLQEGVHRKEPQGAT
Chain of FcγRIII (CD16A) (P08637 17-254): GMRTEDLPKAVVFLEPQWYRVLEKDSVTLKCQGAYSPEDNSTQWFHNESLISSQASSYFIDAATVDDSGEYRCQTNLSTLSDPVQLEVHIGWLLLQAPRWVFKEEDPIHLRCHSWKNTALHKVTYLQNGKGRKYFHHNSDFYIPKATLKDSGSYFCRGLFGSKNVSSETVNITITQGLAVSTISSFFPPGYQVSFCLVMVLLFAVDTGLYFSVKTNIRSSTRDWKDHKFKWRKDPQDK
Chain of neonatal Fc receptor (FcRn) (P55899 whole entry, looked up, tested part not stated): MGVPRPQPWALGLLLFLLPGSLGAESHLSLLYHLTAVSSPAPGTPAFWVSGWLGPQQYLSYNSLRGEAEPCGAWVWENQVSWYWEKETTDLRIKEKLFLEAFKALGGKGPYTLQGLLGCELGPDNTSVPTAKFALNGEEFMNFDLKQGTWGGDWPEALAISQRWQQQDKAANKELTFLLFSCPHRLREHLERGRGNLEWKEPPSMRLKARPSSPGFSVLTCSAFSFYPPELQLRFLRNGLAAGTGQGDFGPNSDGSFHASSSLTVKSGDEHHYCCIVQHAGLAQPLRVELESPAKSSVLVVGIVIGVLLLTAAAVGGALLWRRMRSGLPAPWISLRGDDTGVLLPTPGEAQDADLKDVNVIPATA

Kd [1] [nM]	Kd [2] [nM]	Kd [3] [nM]	Kd [4] [nM]	Kd [5] [nM]	EC50 [6] [nM]	Kd [7] [nM]	reduction of HCC1954 cell number after 5 days of incubation (proliferation assay) [8] [%]	reduction of SK-BR-3 cell number after 5 days of incubation (proliferation assay) [8] [%]	Substance
40	–	–	–	–	–	–	–	–	Trastuzumab (antibody)
15	5000	660	250	20 to 60	–	–	–	–	IgG1 (antibody)
27	6200	500	1000	–	–	–	–	–	WT Fcab (unmodified constant region of human IgG1) (domain or fragment)
19	6400	560	472	45	3.3	0.8	47	39	FS102 (designed binder)
